Experimental findings from patent US20230049752A1 (University of California, published 2023) are described below.

Test [1] concerns the target human Claudin-6 (CLDN6) (human) (UniProt P56747). The experiment in a line: FACS titration of labelled mAb on HEK293T-CLDN6-mGFP cells.
Test [2] has the same target. The experiment in a line: FACS titration of labelled mAb on ARK2 cells (endogenous CLDN6+).
For test [3], the target named is CLDN3/4 (endogenous on LS513 or MCF7 cells). The experiment in a line: FACS titration of labelled mAb on MCF7 cells (endogenous CLDN3/4+).
Test [4] has the same target. The experiment in a line: FACS titration of labelled mAb on LS513 cells (endogenous CLDN3/4+).
Test [5] deals with human Claudin-6 (CLDN6) (human) (UniProt P56747). Put plainly: FACS titration of labelled mAb on OVCA429 cells (endogenous CLDN6+).
The target in another test is T1, Claudin-4 (CLDN4) (human, UniProt O14493 1-209).
T1 construct: whole, on cells; also called CLDN4-GFP; CLDN4-mGFP
T1 sequence (looked up): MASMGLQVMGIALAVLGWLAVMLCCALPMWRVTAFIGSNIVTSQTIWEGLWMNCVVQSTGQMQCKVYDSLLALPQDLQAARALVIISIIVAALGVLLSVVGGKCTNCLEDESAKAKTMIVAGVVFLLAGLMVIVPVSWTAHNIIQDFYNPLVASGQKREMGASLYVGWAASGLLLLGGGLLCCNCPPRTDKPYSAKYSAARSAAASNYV
Put plainly: FACS titration of labelled mAb on HEK293T CLDN4-mGFP cells. As for the experimental part: (§1) CLDN6 antibodies were tested from 0.32 nM to 1000 nM (serial dilution 1:5, 6 points) in a 50 μl volume with 150,000 cells system.
(§2) CLDN6-expressing cells were used in FACS assays to determine the CLDN6 antibody's ability to bind to CLDN6 on the surface of cells and to cross-react with other CLDN family members. HEK293 T cells engineered to express human CLDN6 fused to GFP, mouse CLDN6 fused to GFP, CLDN9-GFP, CLDN4-GFP, or CLDN3-GFP, or GFP alone (without CLDN6) were used as artificial models of CLDN6 expression.
(§3) For each type of cell tested and for each mAb, cells were detached from the surface of the culture flasks by EDTA (instead of trypsin) in order to protect the cell surface proteins. The detached cells were then incubated with Alexa Fluor®-labeled CLDN6 mAbs for 30 min in the dark on ice at a pre-determined concentration. […] After washing, the cells were read by a BD Accuri™ Flow Cytometer C6 to detect antibody-antigen protein binding in channel FL4H. Each antibody was tested at varied concentrations to establish a dose-fluorescence curve. […] Cross-reactivity data were obtained using a similar methodology, but with cells having a different expression profile for CLDN6, CLDN3, CLDN4 and CLDN9.

The target in another test is T2, Claudin-9 (CLDN9) (human, UniProt O95484 1-217).
T2 construct: whole, on cells; also called CLDN9-GFP; CLDN9-mGFP
T2 sequence (looked up): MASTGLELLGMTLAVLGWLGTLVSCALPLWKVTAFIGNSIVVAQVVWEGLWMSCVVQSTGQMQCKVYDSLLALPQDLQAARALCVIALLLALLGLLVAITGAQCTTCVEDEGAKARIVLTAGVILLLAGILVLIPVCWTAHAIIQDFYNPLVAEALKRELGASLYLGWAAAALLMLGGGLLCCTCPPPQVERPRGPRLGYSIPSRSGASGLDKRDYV
The experiment in a line: FACS titration of labelled mAb on HEK293T CLDN9-mGFP cells. As for the experimental part: as §1, §2, §3

The target of the next test is T3, mouse Claudin-6 (CLDN6) (mouse, UniProt Q9Z262 1-219).
T3 construct: whole, on cells; GFP fusion on engineered HEK293T cells; also called Mouse CLDN6; murine CLDN6
T3 sequence (looked up): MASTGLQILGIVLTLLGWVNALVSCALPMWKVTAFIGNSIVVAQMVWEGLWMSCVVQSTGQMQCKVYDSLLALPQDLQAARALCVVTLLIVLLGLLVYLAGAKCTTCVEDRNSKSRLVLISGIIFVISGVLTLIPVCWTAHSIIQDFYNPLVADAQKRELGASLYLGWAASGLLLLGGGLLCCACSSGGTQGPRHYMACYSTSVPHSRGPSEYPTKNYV
The experiment in a line: FACS titration of labelled mAb on HEK293T mouse CLDN6-mGFP cells. The method, then: as §1, §2, §3

B1: AB6 (antibody, V domains shown)
VH: DVQLQESGPGLVKSSQSLSLTCSVTGYSITSGYYWKWIRQFPGNKLEWMGYISYDGGINYNPSLKNRISITRDTSKNQFFLKLNSVTTEDTAKYYCARFGKGAMDYWGQGTSVTVSS
VL: AIVMFQSPSSLVVSAGEKVTMSCKSSQSLLNSRTRKNYLAWYQQKPGQSPKLLIYWASTRESGVPDRFTGSGSGTDFTLTISSVQAEDLAVYYCKQSYYLYTFGGGTKLEIK
notes: full-length IgG (ExpiCHO)
Usually EC50 stands for the concentration needed to bring the measured effect to its halfway point. For the molecule B1, the concentration for a half-maximal effect (EC50) worked out at 1430 nM in test [1]; 765 nM in test [2]; 1140 nM in test [3]; 133 nM in test [4]; 394 nM in test [5]; 26 nM in the test with Claudin-4 (CLDN4). The values for the EC50 in the test with Claudin-9 (CLDN9) and in the test with mouse Claudin-6 (CLDN6) were 2770 nM and 2220 nM, respectively.

B2: AB4 (antibody, V domains shown)
VH: QVQLQQSGAELARPGASVKMSCKASGYTFTSYTMHWIKQRPGQGQEWIGYINPSSTYTHYIKKFKDKATLTADKSSSTAYMQLRSLTSEDSAVYYCSRGELGGFAYWGQGTLVTVSA
VL: DVVMTQTPLSLPVSLGDQASISCRSSQSLVHSDGNTYLNWYLQKPGQSPKLLIYKVSNRFSGVPDRFSGSGSGTDFTLKIRRVEAEDLGVYFCSQSTHVPYTFGGGTKLEIK
notes: full-length IgG (ExpiCHO)
For B2, the EC50 in test [1] came out at 17 nM; in test [2], 48 nM; in test [3], 653 nM; in test [4] it was 730 nM; in test [5], 168 nM; with Claudin-9 (CLDN9) it was 1860 nM. This molecule also gave an EC50 in the test with mouse Claudin-6 (CLDN6) of at least 5000 nM.

B3: AB10 (antibody, V domains shown)
VH: QIQLVQSGPALKKPGETVKISCKASGYTFTDYSMHWIKQAPGKGLKWMGWISTETGEPTYADGFKGRFDFSLETSADTAYLSINNLTNEDTATYFCTRGLWSSFAYWGQGTLVTVSA
VL: DVVMTQTPLSLPVSLGDQASISCRASQSLVHSNGNTYLHWFLQKPGQSPKLLIYKVSNRFSGVPDRFSGSGSRTDFTLKISRVEAEDLGVYFCSQITHVPYTFGGGTKLEIK
notes: full-length IgG (ExpiCHO)
Take B3: the EC50 in test [1] was 2760 nM; in test [2], 2140 nM; in test [3], 5000 nM; in test [4] it was 1950 nM; in test [5], 2470 nM; with Claudin-9 (CLDN9), 246 nM.

B4: AB8 (antibody, V domains shown)
VH: QVQLQQSGAELARPGASVKMSCKASGYTFTTYTMHWLKQRPGQGLEWIGYINPRSGYSNYNQKFKDKATLTADKSSNTAYMQLNTLTSEDSKVYYCSRGELGGFAYWGQGTLVTVSA
VL: DVVMTQTPLSLPVSLGDQASISCRSSQSLVHSDGNTYLYWYLQKPGQSPKLLIYKVSNRFSGVPDRFSGSGSGTDFTLKISRVEAEDLGVYFCSQSTHVPYTFGGGTKLEIK
notes: full-length IgG (ExpiCHO)
For the molecule B4, the EC50 in test [1] was 1920 nM; in test [2] it was 1140 nM; in test [3], 1060 nM; in test [4] it was 1130 nM; in test [5] it was 1090 nM; with Claudin-4 (CLDN4) it was at least 5000 nM. Also, the EC50 was 2770 nM in the test with Claudin-9 (CLDN9) and at least 5000 nM with mouse Claudin-6 (CLDN6).

B5: AB12 (antibody, V domains shown)
VH: EVKLMESGGDLVKPGGSLKLSCAASGFTFSSYAMSWVRQTPEKRLEWVASIRSGGTTYYPDSVKGRFTISRDNARNILYLRMSSLRSEDTAIYYCAKVGGNPYPMDYWGQGTSVTVSS
VL: DIQMIQSPSSMFASLGDRVSLSCRASQDIGGNLDWYQQKPGGTIKLLIYSTSNLNSGVPSRFSGSGSGSDYSLTITSLESEDFADYYCLQRNAYPLTFGAGTKLELK
notes: full-length IgG (ExpiCHO)
Consider B5, for which the concentration for a half-maximal effect (EC50) in test [1] worked out at 5000 nM; in test [2] it was 1300 nM; in test [3], 5000 nM; in test [4], 2270 nM; in test [5], 2290 nM; with Claudin-4 (CLDN4), 2090 nM. This molecule also displayed a concentration for a half-maximal effect (EC50) with Claudin-9 (CLDN9) of 2470 nM.

B6: AB11 (antibody, V domains shown)
VH: DVQLVESGGGLVQPRGSRKLSCAASGFTFSSFGMHWVRQAPEKGLEWVAYISSDSRTIYYADTVKGRFTISRDNPTNTLFLQMTSLRSEDTAMYYCARDYGRTYEAYWGQGTLVTVSA
VL: DIVLTQSPASLAVSLGQRATISCRASKSVSTSGYSYIHWYQQKPGQPPKLLIYLASNLESGVPARFSGSGSGTDFTLNIHPVEEEDAATYYCQHSRELPLTFGAGTKLELK
notes: full-length IgG (ExpiCHO)
Turning to B6, the EC50 in test [1] stood at 1700 nM; in test [2], 363 nM; in test [3] it was 427 nM; in test [4], 493 nM; in test [5], 835 nM; with Claudin-4 (CLDN4), 2240 nM. This molecule yielded an EC50 with mouse Claudin-6 (CLDN6) of 2380 nM.

B7: AB15 (antibody, V domains shown)
VH: DVQLVESGGGLVQPRGSRKLSCAASGFTFSSFGMHWVRQAPEKGLEWVAYISSDSRTIYYADTVKGRFTISRDNPTNTLFLQMTSLRSEDTAMYYCARDYGRTYEAYWGQGTLVTVSA
VL: NIMMTQSPSSLAVSAGEKVTMSCKSSQSVLFSSNQKNYLAWYQQKPGQSPRLLIYWASTRESGVPDRFTGSGSGTDFTLTISNVQAEDLAVYYCHQYLSSRTFGAGTKLELK
notes: full-length IgG (ExpiCHO)
B7: the EC50 in test [1] is 5000 nM; in test [2], 5000 nM; in test [3], 5000 nM; in test [4], 5000 nM; in test [5], 5000 nM; with Claudin-4 (CLDN4), at least 5000 nM. This molecule had an EC50 with mouse Claudin-6 (CLDN6) of at least 5000 nM.

B8: AB1 (antibody, V domains shown)
VH: QVQLQQSAAELARPGASVKMSCKASGYTFTTYTMHWVKQRPGQGLEWIGFINPSSGYTDYNQKFKDRTTLTADKSSSTVYMQLSSLTSEDSAVYYCANGDYYVAYWGQGTLVTVSA
VL: QIVLTQSPAIMSASLGERVTMTCTASSSVSSTYFHWYQQKPGSSPKLWIYSTSNLASGVPRRFSGSASGTSYSLTISSMEAEDAATYYCHQYHRSPLTFGAGTKLELK
notes: full-length IgG (ExpiCHO)
B8: the EC50 in test [1] was 109 nM; in test [2], 105 nM; in test [3], 5000 nM; in test [4], 5000 nM; in test [5], 84 nM; in the test with Claudin-9 (CLDN9) it was 2760 nM. For the same molecule, it took 72 nM to reach a half-maximal effect with mouse Claudin-6 (CLDN6) (EC50).

B9: AB7 (antibody, V domains shown)
VH: EVQLQQSGPELVKPGASMKISCKASGYSFTGYTMNWVKQSHGKNLEWIGLINPYNGGTNYNQKFKGKATLTVDKSSSTAYMELLSLTSEDSAVYYCARGVYDYDGFTYWGQGTLVTVSA
VL: QIVLTQSPAIMSASLGDRVTMTCTASSSVSSSYLHWYQQKPGSSPKLWIYSTSNLASGVPARFSGSGSGTSYSLTISSMEAEDAATYYCHQYHRSPPTFGSGTKLEIK
notes: full-length IgG (ExpiCHO)
In the case of B9, the EC50 in test [1] turned out to be 579 nM; in test [2] it was 353 nM; in test [3], 979 nM; in test [4], 635 nM; in test [5], 531 nM; with Claudin-4 (CLDN4), 2090 nM. For the same molecule, the EC50 with Claudin-9 (CLDN9) was 1940 nM; in the test with mouse Claudin-6 (CLDN6), 1550 nM.

B10: AB5 (antibody, V domains shown)
VH: EVQLQQSGPELVKPGASVKMSCKASGYIFTHYIMHWVKQKPGQGLEWIGCINPYNDGTKYNEKFKGKATLTSDKSSSTAYMELSSLTSEDSAVYYCARYYGYPYYSMDYWGQGTSVTVSS
VL: DVLMTQTPLSLPVSLGDQPSISCRSSQSIVHSNGNTYLDWYLQKPGQSPKLLIYKVSNRFSGVPDRFSGSGSGTDFTLKISRVEAEDLGVYYCFQGSHVPFTFGSGTRLEIK
notes: full-length IgG (ExpiCHO)
With B10, the EC50 in test [1] is 10 nM; in test [2], 8 nM; in test [3], 1480 nM; in test [4], 781 nM; in test [5], 5 nM; with Claudin-9 (CLDN9), 25 nM. A half-maximal effect with mouse Claudin-6 (CLDN6) (EC50) was put at 11 nM.
